The supplement of paper PMC9170038

Tests used:
[1] = test system: K4 kissing-loop RNA reporter; test: apparent KD of K4 kissing-loop reporter; higher = weaker reporter binding; conditions: Eterna round: R107;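 also: bound reporter read as fluorescence of individual clusters on recovered sequencing chips by microscopy, with normalized cluster intensities fitted with a binding model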
Procedure: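 RNA-MaP round R107: designed RNA switches with theophylline, tryptophan, arginine or FMN aptamers are transcribed on-chip within common flanks. They are titrated with a labelled K4 kissing-loop RNA reporter in RNA-MaP buffer (100 mM Tris pH 7.5, 80 mM KCl, 4 mM MgCl2), without ligand or with the indicated ligand. Median apparent KD per design.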

MS2 coat protein = test: apparent KD of MS2 coat protein; designed switch direction (-1 OFF switch, 1 ON switch): -1; higher = weaker reporter binding
Summary of the method: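 Three titration conditions were used: no input, 200 uM small-molecule ligand, and an oligonucleotide input. In each, SNAP-549-labelled MS2 coat protein was raised from 0.7 or 1.5 nM, doubling, to 3 µM over designed RNA switches transcribed on Illumina chips by stalled E. coli RNA polymerase. Curve fits of normalised cluster fluorescence gave values whose per-design median over clusters is the apparent KD.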

[2] = input ligand: theophylline 20 uM
[3] = input ligand: tryptophan 2.4 mM
[4] = Eterna round: R95, input ligand: FMN 200 uM
[5] = Eterna round: R95, input ligand: microRNA oligo, concentration not stated
[6] = Eterna round: R95, input ligand: none
[7] = input ligand: microRNA oligo, concentration not stated

## AAAAUAAACCAGUGAUGUUGGUAACCAGAUACCAGCGACGAAAGUCGCCCUUGGCAGCUGUGGACGUACAAAAUAAGUACGUCCU
[1]; input ligand: FMN 200 uM
  apparent KD of K4 kissing-loop reporter: 218 nM
[1]; input ligand: arginine 13.2 mM
  apparent KD of K4 kissing-loop reporter: 264 nM
[1]; input ligand: none
  apparent KD of K4 kissing-loop reporter: 257 nM
[1]; [2]
  apparent KD of K4 kissing-loop reporter: 223 nM
[1]; [3]
  apparent KD of K4 kissing-loop reporter: 199 nM

## UCGAACGAUGGAAGGAGCGCUCGUCAGUCCUGCGAGUGAUGUUCGUGGGUAAAUAGUCGCGAGCAGGUAGGUCGCCAUCUUGGGC [Reriat]
[1]; input ligand: FMN 200 uM
  apparent KD of K4 kissing-loop reporter: 153 nM
[1]; input ligand: arginine 13.2 mM
  apparent KD of K4 kissing-loop reporter: 132 nM
[1]; input ligand: none
  apparent KD of K4 kissing-loop reporter: 151 nM
[1]; [2]
  apparent KD of K4 kissing-loop reporter: 136 nM
[1]; [3]
  apparent KD of K4 kissing-loop reporter: 134 nM

## AAACUUGCAGUGAUGUUGCAAGUAGGUGAUACCAGCAUCGAAAGAUGCCCUUGGCAGCACCAACACUGCAAGUAAGUAUCACCAA [(H1)-(H2)-(T1)-(T2)-(H)'-(T)'_Design1]
[1]; input ligand: FMN 200 uM
  apparent KD of K4 kissing-loop reporter: 116 nM
[1]; input ligand: arginine 13.2 mM
  apparent KD of K4 kissing-loop reporter: 138 nM
[1]; input ligand: none
  apparent KD of K4 kissing-loop reporter: 128 nM
[1]; [2]
  apparent KD of K4 kissing-loop reporter: 161 nM
[1]; [3]
  apparent KD of K4 kissing-loop reporter: 111 nM

## UUUGUAUAGGGAAGGAGCGUGAAUGAUAAUGAAUAUAGUGAUGUUAUAUAUAAGAAAGAAUCACAGGUAGGUCGCCCGGAGGAGG [SSArgB.J]
[1]; input ligand: FMN 200 uM
  apparent KD of K4 kissing-loop reporter: 612 nM
[1]; input ligand: arginine 13.2 mM
  apparent KD of K4 kissing-loop reporter: 410 nM
[1]; input ligand: none
  apparent KD of K4 kissing-loop reporter: 668 nM
[1]; [2]
  apparent KD of K4 kissing-loop reporter: 1350 nM
[1]; [3]
  apparent KD of K4 kissing-loop reporter: 428 nM

## AAAAUAAUCCAGUGAUGUUGGUCUCCAGAUACCAGCGACGAAAGUCGCCCUUGGCAGCUGUGGACGUACAAAAUAAGUACGUCCU
[1]; input ligand: FMN 200 uM
  apparent KD of K4 kissing-loop reporter: 366 nM
[1]; input ligand: arginine 13.2 mM
  apparent KD of K4 kissing-loop reporter: 416 nM
[1]; input ligand: none
  apparent KD of K4 kissing-loop reporter: 464 nM
[1]; [2]
  apparent KD of K4 kissing-loop reporter: 345 nM
[1]; [3]
  apparent KD of K4 kissing-loop reporter: 314 nM

## UAAUGCAAGUAAAGAUCUUACAUGAGGAUCACCCAUGUGCUCGUCUUAUAAAGUACUAUCACGAAAGUGAUAGUACA [Mat - Sensor v3 - turn-off var 1 - Eli Mod - D89] (puzzle: Sensor v3, turn-off variant 1)
MS2 coat protein; [4]
  apparent KD of MS2 coat protein: 18.2 nM
MS2 coat protein; [5]
  apparent KD of MS2 coat protein: 119 nM
MS2 coat protein; [6]
  apparent KD of MS2 coat protein: 18 nM

## UGUUUAUAUGAAGGAUAUACUUAACAUGAGGAUCACCCAUGUGGUGUUGUGAGUGAGUGAGUUUAGUAGAAGGUCAAGUAUUUU [JMF's solution 54] (Eterna round: R96, puzzle: Exclusion NG 2)
MS2 coat protein; input ligand: FMN 200 uM
  apparent KD of MS2 coat protein: 681 nM
MS2 coat protein; [7]
  apparent KD of MS2 coat protein: 373 nM
MS2 coat protein; input ligand: none
  apparent KD of MS2 coat protein: 395 nM

## AAAAUAAGUGUGAGGAUAUGCUGGUCCUUGGAUCAGCAGAAGGCACAUGAGGAUCACCCAUGUAAUAUAUUUAU [Mat - Exclusion 4 - JL Mod - D62] (puzzle: Brourd's mod of Exclusion 4)
MS2 coat protein; [5]
  apparent KD of MS2 coat protein: 77.3 nM

## GAAAAGGUAGGAUAUACGAUAAGAAAGGGUAGAUAAUAAACACAUGAGGAUCACCCAUGUAGAAGGACCAAAAG [salish99_ex2_r3_102] (puzzle: Exclusion 2)
MS2 coat protein; [4]
  apparent KD of MS2 coat protein: 139 nM
MS2 coat protein; [5]
  apparent KD of MS2 coat protein: 35.4 nM
MS2 coat protein; [6]
  apparent KD of MS2 coat protein: 39.7 nM

## ACCUCACUUGAGGAUCACCCAAGUCAGGAUAUACUCGUUUGCCACAAAACGCGGCAUUGUAGAAGGGACGGGCU [Esusso] (Eterna round: R97, puzzle: Exclusion 1)
MS2 coat protein; input ligand: FMN 200 uM
  apparent KD of MS2 coat protein: 30 nM
MS2 coat protein; input ligand: none
  apparent KD of MS2 coat protein: 21.5 nM

## UUUUAACAUGAGGAUCACCCAUGUGAGGAUAUCGAAAUUUAUAUUUAUAUUAAUAUUACGAGAAGGCACAUUUU [JMF 82] (puzzle: Exclusion 1)
MS2 coat protein; [5]
  apparent KD of MS2 coat protein: 89.6 nM

## UAUUCGCAAGUGAGAUCCCACAUGAGGAUCACCCAUGUGCUCGUCUUAUAAGGUACUGUGACGAUAGUCACGGUACC [Mat - Sensor, turn-off var - Eli Mod - D80] (Eterna round: R97, puzzle: Sensor, turn-off variant 1)
MS2 coat protein; input ligand: FMN 200 uM
  apparent KD of MS2 coat protein: 30.9 nM
MS2 coat protein; input ligand: none
  apparent KD of MS2 coat protein: 32.5 nM

## AUACCACGAGGAUAUCGUCUAUUCCACAUGAGGAUCACCCAUGUUAUCCAUGUUUCGUUUCGAGAAGGCGUGGGUU [JR_E5_Sub074] (puzzle: Exclusion 5)
MS2 coat protein; [5]
  apparent KD of MS2 coat protein: 45.9 nM

## GCCGAAAGCGUAGGAUAUUGAAUAAAGCGGAAACGCAAGACAUGAGGAUCACCCAUGUGUCCGGACGAGAAGGGCGAAAGCGGC [AK ExNG2-V2-2] (Eterna round: R96, puzzle: Exclusion NG 2)
MS2 coat protein; input ligand: FMN 200 uM
  apparent KD of MS2 coat protein: 33.6 nM
MS2 coat protein; [7]
  apparent KD of MS2 coat protein: 24.1 nM
MS2 coat protein; input ligand: none
  apparent KD of MS2 coat protein: 35.3 nM

## AGGACGGCAGGAUAUACAUGAGGAUCACCCAUGUCUGGUGUCGAGCUAAUUGUGCAUAGUAGAAGGGUCGCUCC [Eternabot (L1) Solution 39] (Eterna round: R97, puzzle: Exclusion 3)
MS2 coat protein; input ligand: FMN 200 uM
  apparent KD of MS2 coat protein: 204 nM
MS2 coat protein; input ligand: none
  apparent KD of MS2 coat protein: 62.1 nM

## AGUAACAGAGGAUAUACUGUUUUAUGUGUUUAUUGUUUUAAACAUGAGGAUCACCCAUGUAGAAGGCUGAAUAA [JMF 85] (puzzle: Exclusion 2)
MS2 coat protein; [5]
  apparent KD of MS2 coat protein: 25.5 nM

## GGAUCGUAUGUCAGGAUAUGCCACUGGAUACAGUGGUAGAAGGGACAUGAGGAUCACCCAUGUCCUACCGAUCC [Fiskers BMX 4 - 50] (puzzle: Brourd's mod of Exclusion 4)
MS2 coat protein; [5]
  apparent KD of MS2 coat protein: 12.4 nM

## CUAGGGCACAUUUAAACGCCCUAACAUGAGGAUCACCCAUGUCAGGAUAUGUAGGCAAAGACCCUACAGAAGGGACAUGUCCUA [Recebe] (Eterna round: R96, puzzle: Exclusion NG 3)
MS2 coat protein; input ligand: FMN 200 uM
  apparent KD of MS2 coat protein: 303 nM
MS2 coat protein; [7]
  apparent KD of MS2 coat protein: 42.9 nM
MS2 coat protein; input ligand: none
  apparent KD of MS2 coat protein: 52.9 nM

## UAUAUAUAGUAAGGAUAUGUAAAUAUUUUAUAAACAGAAGGUACUGACAUGAGGAUCACCCAUGUUUUAGUGUGGGCAUGUAGA [JMF's solution 28] (Eterna round: R96, puzzle: Exclusion NG 1)
MS2 coat protein; [7]
  apparent KD of MS2 coat protein: 66.2 nM

## CUUGUUUAUGUAGGAUAUGCCUGGCGUGCCUUUGCAGAAGGACAUGAGGAUCACCCAUGUAUUGCGGUCUGCGUUCAGAUCGCA [salish99_ExNG1_r4_045] (Eterna round: R96, puzzle: Exclusion NG 1)
MS2 coat protein; input ligand: FMN 200 uM
  apparent KD of MS2 coat protein: 34.6 nM
MS2 coat protein; [7]
  apparent KD of MS2 coat protein: 23.2 nM
MS2 coat protein; input ligand: none
  apparent KD of MS2 coat protein: 34.5 nM

## GAGUCACAUGAGGAUCACCCAUGUGAGGAUAUCAUGCUUCGUAGUAAACUACGAAGUGUGAGAAGGCACAAUGG [Omei Ex1 C8] (Eterna round: R97, puzzle: Exclusion 1)
MS2 coat protein; input ligand: FMN 200 uM
  apparent KD of MS2 coat protein: 126 nM
MS2 coat protein; input ligand: none
  apparent KD of MS2 coat protein: 68.6 nM

## UGAUCAGACCGAGGAUAUAUAUGUAGGACGCACGUGAGUGCGUCCAGUACAUGAGGAUCACCCAUGUAGAAGGCGGUCUGAUCU [JL ENG2 1.96] (Eterna round: R96, puzzle: Exclusion NG 2)
MS2 coat protein; input ligand: FMN 200 uM
  apparent KD of MS2 coat protein: 20.3 nM
MS2 coat protein; [7]
  apparent KD of MS2 coat protein: 9.99 nM
MS2 coat protein; input ligand: none
  apparent KD of MS2 coat protein: 13.6 nM

## UCACGGGACUGAGGAUAUACAUGAAUUAUUUUUGUAGAAGGCAGAAUGUUAGUUUAUUCACUAUACAUGAGGAUCACCCAUGUU [JR_ExcNG1_Sub021] (Eterna round: R96, puzzle: Exclusion NG 1)
MS2 coat protein; input ligand: FMN 200 uM
  apparent KD of MS2 coat protein: 21.5 nM
MS2 coat protein; [7]
  apparent KD of MS2 coat protein: 26.7 nM
MS2 coat protein; input ligand: none
  apparent KD of MS2 coat protein: 32.9 nM

## AAUGAGCUAGGAUAUACAUGAGGAUCACCCAUGUAAAAUAGGUCAUGGAGGAACCACUGUAGAAGGAGCAGGGC [Zagereti] (puzzle: Exclusion 3)
MS2 coat protein; [5]
  apparent KD of MS2 coat protein: 47.1 nM
